{
  "source": "patent US20090036380A1",
  "about": "“Composition And Method For Brain Tumor Therapy” (Yeda Research and Development Co., Ltd., priority 2006, published 2009)",
  "biological_target": "EGFR-Flag (UniProt P00533)",
  "test": "cell-based or functional assay",
  "data": [
    {"substance": "HA-Karet (full-length mouse Karet with N-terminal haemagglutinin tag) (from UniProt Q8K2Y9 1-453)", "values": [
      {"measurement": "decrease in cell viability, Hek cells co-transfected with EGFR and Karet (XTT)", "result": 40, "unit": "%"}
    ]}
  ]
}
